Source: paper PMC3407216

Columns and labels:
[1] = target: Matrix metalloproteinase-2 (human (endogenous in tumor cells)) (UniProt P08253)
[2] = target: MMP-2–cleaved fibronectin (human)

Sequence of αvβ3 integrin (P05106 whole entry, looked up): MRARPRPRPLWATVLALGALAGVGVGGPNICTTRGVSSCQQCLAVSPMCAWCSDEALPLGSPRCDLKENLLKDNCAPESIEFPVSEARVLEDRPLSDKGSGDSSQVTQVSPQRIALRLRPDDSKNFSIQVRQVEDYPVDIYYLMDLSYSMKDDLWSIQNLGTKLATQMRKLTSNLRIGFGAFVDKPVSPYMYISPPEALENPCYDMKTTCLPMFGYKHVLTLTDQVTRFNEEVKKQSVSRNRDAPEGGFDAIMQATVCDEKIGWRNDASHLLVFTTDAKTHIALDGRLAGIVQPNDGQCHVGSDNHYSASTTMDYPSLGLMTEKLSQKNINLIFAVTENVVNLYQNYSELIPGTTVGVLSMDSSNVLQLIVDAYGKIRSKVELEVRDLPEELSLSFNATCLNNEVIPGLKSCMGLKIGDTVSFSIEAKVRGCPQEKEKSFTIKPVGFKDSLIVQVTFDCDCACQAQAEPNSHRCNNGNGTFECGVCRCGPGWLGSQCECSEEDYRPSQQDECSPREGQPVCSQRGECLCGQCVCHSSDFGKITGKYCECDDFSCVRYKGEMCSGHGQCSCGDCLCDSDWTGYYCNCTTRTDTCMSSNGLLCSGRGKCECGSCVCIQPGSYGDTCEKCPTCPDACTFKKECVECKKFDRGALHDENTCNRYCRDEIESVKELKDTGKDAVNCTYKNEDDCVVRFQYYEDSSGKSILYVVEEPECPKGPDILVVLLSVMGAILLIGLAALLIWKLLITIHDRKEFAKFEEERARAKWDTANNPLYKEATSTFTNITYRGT
Sequence of UniProt P08253 (P08253 30-660): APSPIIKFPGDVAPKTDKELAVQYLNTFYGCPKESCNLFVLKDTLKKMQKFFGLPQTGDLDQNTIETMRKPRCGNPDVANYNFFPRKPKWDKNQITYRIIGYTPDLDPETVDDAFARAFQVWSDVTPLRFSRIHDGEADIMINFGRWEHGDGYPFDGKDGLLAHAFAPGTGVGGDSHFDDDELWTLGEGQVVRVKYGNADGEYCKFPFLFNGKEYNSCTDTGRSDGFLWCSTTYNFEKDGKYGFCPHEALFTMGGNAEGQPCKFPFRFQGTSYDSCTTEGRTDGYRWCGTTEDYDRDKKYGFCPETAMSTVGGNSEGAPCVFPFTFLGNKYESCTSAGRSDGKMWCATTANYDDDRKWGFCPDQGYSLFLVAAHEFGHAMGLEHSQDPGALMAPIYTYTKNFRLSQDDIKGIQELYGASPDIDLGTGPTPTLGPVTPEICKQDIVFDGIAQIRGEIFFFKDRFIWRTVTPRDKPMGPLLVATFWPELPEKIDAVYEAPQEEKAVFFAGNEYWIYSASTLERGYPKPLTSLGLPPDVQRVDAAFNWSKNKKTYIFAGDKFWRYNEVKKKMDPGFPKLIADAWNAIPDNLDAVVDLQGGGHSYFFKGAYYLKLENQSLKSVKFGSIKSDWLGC

static adhesion of fluorescently stained A375 cells to wells coated with APMA-activated recombinant human MMP-2, compared with cells blocked with RGD peptides [1]: > 59%
adhesion of M21 melanoma cells (30 min) to plates coated with MMP-2–cleaved fibronectin compared with full-length fibronectin; no obvious changes with M21-L cells that lack αvβ3 integrin [2]: > 34%
Substance: αvβ3 integrin (from UniProt P05106 27-788) (receptor)
